Experimental findings from paper PMC6656915, “The MmpL3 interactome reveals a complex crosstalk between cell envelope biosynthesis and cell elongation and division in mycobacteria” (Scientific Reports, 2019) are described below.

The Kd is the constant that tells how readily two partners part at equilibrium. A word on the koff: it is the first-order rate constant of dissociation. A low value points to slow dissociation. The term kon denotes the rate constant with which the complex forms. Lower therefore signals slower complex formation.

Assay [1] has as its target MmpL3 protein from M. tuberculosis, C-terminally hexahistidine-tagged, devoid of gfp fusion (M. tuberculosis) (UniProt P9WJV5). Nature of the assay: SPR; MmpL3 immobilised on CM5 chip; analytes injected at two-fold increasing concentrations from 0.6 µM up to 10 µM, 10 µL/min for 30 sec, dissociation 180 sec, 25 °C; 20 mM HEPES pH 7.4, 150 mM NaCl, 0.2% Triton X-100 (0.03% DDM instead for AftD); global fit to the 1:1 Langmuir binding model. On the technique in general: In SPR one partner is held on a chip, and binding of the other changes the refractive index at the surface.

In assay [2] the target is T1, MmpL3 protein from M. tuberculosis, C-terminally hexahistidine-tagged, devoid of gfp fusion (M. tuberculosis, UniProt P9WJV5 1-944).
T1 construct: MmpL3 (Rv0206c), mycolic acid (TMM) transporter of M. tuberculosis; also called MmpL3tb; Rv0206c
T1 sequence: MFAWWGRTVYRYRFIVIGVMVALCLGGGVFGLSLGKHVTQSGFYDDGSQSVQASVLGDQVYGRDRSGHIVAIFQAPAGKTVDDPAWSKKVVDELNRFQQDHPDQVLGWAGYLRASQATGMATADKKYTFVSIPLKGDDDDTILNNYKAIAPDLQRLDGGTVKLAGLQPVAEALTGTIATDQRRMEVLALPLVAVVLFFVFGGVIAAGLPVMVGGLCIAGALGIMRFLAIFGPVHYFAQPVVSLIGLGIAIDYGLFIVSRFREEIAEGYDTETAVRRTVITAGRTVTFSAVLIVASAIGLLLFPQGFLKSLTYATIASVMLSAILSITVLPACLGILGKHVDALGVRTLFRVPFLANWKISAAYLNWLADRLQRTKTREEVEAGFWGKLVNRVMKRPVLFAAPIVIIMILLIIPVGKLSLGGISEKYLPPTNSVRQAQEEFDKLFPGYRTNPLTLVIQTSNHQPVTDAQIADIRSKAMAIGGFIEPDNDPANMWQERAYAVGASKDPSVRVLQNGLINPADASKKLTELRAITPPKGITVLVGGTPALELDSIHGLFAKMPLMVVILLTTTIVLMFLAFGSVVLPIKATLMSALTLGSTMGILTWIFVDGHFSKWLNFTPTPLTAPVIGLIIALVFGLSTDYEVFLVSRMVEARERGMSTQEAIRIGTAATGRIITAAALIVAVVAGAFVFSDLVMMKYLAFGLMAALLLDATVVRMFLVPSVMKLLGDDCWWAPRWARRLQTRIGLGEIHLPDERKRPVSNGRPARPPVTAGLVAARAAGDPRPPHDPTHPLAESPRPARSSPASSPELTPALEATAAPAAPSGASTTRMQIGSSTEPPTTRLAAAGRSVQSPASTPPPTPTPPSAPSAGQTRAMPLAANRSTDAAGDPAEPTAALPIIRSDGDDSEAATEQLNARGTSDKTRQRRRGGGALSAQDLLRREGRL
The description is as above. As to conditions: both partners purified.

For assay [3], the target named is T2, MmpL3 from M. tuberculosis, C-terminally hexahistidine-tagged, purified (M. tuberculosis, UniProt P9WJV5 1-944).
T2 chain: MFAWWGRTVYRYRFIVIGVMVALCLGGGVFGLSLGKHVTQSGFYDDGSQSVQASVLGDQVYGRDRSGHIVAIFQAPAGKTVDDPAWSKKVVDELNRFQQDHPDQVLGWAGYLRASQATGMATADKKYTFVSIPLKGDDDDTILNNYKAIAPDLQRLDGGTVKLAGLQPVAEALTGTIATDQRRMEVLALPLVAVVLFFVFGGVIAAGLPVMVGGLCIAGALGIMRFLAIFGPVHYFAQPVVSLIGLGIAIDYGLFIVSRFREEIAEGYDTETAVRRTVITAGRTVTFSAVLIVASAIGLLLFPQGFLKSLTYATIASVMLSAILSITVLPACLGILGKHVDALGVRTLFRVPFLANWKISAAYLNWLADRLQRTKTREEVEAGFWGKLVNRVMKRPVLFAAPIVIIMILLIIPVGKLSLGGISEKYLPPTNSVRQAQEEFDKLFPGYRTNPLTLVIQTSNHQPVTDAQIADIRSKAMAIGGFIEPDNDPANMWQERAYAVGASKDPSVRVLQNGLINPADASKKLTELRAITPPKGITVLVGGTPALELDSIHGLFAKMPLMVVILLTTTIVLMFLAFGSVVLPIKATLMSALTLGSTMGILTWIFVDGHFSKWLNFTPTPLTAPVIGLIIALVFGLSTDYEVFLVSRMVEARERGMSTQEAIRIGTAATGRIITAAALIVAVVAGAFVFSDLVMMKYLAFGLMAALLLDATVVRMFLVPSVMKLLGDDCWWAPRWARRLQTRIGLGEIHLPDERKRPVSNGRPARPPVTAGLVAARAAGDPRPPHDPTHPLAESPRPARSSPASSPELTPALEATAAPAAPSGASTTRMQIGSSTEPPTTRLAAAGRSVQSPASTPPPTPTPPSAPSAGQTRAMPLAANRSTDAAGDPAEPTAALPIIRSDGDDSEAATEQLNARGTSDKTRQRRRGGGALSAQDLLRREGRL
Description: SPR.

For “AftD from Mycobacterium abscessus (enzyme)”, in assay [1], the Kd was 170 nM, the koff stood at 0.00335 s⁻¹ and the kon was 19400 M⁻¹ s⁻¹.

B1: Rv0207c from M. tuberculosis H37Rv with C-terminal hexahistidine tag (natural protein)
chain: MSLTEDVTSQTSESLARHSVLAEDLSQDGLTSLGAPGARVLLVWDAPNLDMGLGSILGRRPTALERPRFDALGRWLLARTAEIVAGRPGISTEPEATVFTNIAPGSAEVVRPWVDALRNVGFAVFAKPKVDEDSDVDRDMLAHIDERYREGLAALVVASADGQAFRQPLEAVARSGTPVQVLGFREHASWALASDTLEFVDLEDIAGVFREPLPRIGLDSLPEQGAWLQPFRPLSSLLTSRV
notes: Rv0207c, conserved protein of unknown function of M. tuberculosis H37Rv
In assay [2], B1 showed a Kd of 150 nM, a koff of 0.00227 s⁻¹ and a kon of 14900 M⁻¹ s⁻¹. This molecule came in with a Kd in assay [3] of 152 nM.

B2: CrgA from M. tuberculosis H37Rv with C-terminal hexahistidine tag (natural protein)
chain: MPKSKVRKKNDFTVSAVSRTPMKVKVGPSSVWFVSLFIGLMLIGLIWLMVFQLAAIGSQAPTALNWMAQLGPWNYAIAFAFMITGLLLTMRWH
notes: CrgA (Rv0011c), cell division regulatory protein of M. tuberculosis H37Rv; also called Rv0011c
As for B2, in assay [2], binding was put at a Kd of 470 nM, the koff stood at 0.0015 s⁻¹ and the kon worked out at 3180 M⁻¹ s⁻¹.

B3: AftD from Mycobacterium abscessus, N-terminal 10-histidine tag, purified (natural protein)
chain: MTYRLDSSALSRRWLAVAAAVSLLLTFSQSPGQISPDTKLDLAINPLRFAARALNLWSSDLPFGQAQNQAYGYLFPHGAFFSLGHLLGVPAWVTQRLWWALLIVAGFWGLIRVAEALGIGTRGSRIIAAVAFALSPRVLTTLGAISSETLPMMLAPWVLLPLILTFQGRMSPRRAAALSAVAVALMGAVNAVATALACGVAVIWWLAHRPNRTWWRFTAWWIPCLALASTWWIVALLIFGKISPKFLDFIESSGVTTQWTSLTEVLRGTDSWTPFVAPTATAGSSLVTQSAMVIATTMLAAAGMAGLAMRGMPARGRLVAVLLIGLVLLTAGYTGALGSPIAQQIQFFLDDGGTPLRNVHKLEPLIRLPLILGLAHALSRIPLPASVPVRQWLSALARPERNRAVAFAIVLLVALAASTSLAWTGRLVPRGGFDAIPGYWNDTAHWLADHDTGGRALVVPGAPFAIQTWGLTRDEPLQALGQTPWGVRDSIPLTPPETIRAIDSVQQLFAAGRPSDGLADTLREQGISYLVVRNDLDPDTSRSARPILVHHTIEGSPGLTKVAQFGDPVGAGAVEGFVADSDLRPQYPAVEIYAVGANDHDGEPYFTDIDTMPRVAGGPEALLRLNERRRQLNEPPLGPSLLATDAAQAGLRPGPAVVTDTPLARETDYGRVDDHSSAIRAPGDKRRTFNRVPDYPATGVPLVNGSWTGGTITASSSASDSTALPNVAPGTSTAAAIDRDNATSWVSSSLEAALGQWIRIDLDRPITNAILTVTPSATALGAQVRRLEVETDNGTTSVRFDEPGQPLNIALRPGETTWVKVTATGTDDGTSGVQFGVTELSLTQYDAAGFAHTVDLRHSATVPPPPAGDNPLGWDLGSPLQGRSGCAPSPQRLRCAATLSLAPEEPGTFIRTLTVPQPVSLTPRLWVRARPGPQLRDLIQQPGTTVATGDSDVIDPQGSSYAATDGDPGTVWTAPQDSVQRLHLPSLVIKLPKPTAIGAIRLRPSRTEVPAHPKQVAINLGDGPQLRSIDPKADVTELALHPSITDTITVTVTDWTDIIDRTALGFDQLKPPGIAEVIALDADHRPIAPADNAANSKRKITIGCNRGPILALAGRFVPMSITATVRELLDGTVIQATPCDTSPIATGAGIQDVTVNPSQQFIVDGVQLTAAATEPASATMTVAPKGAWGPDRREVTAEPSAHERVLAVPESINPGWAARDAQGHLLTPVRVNGWQQGWVLPAGDGGKITLTFGLNTWYRAGLFGGLALLPILACLALLPARGRTTLPPVAPWCAGPAAGVAVLAALTAISGISGMAVGLAALAFKVWTRWPLRAVTAAGVYLAGGSLLLAGAALSRHPWRSVGGYTGHSWWIQLLALISVASVALAAVRLPSRRCWKRRSASREGDSTSA
For the molecule B3, the Kd in assay [3] was 172 nM.
